Laboratory results taken from patent US20230301998A1 (SANFORD BURNHAM PREBYS MEDICAL DISCOVERY INSTITUTE, published 2023).

How the values were obtained:
Test in all cases: Flag IP of Flag-SHARPIN from WM115 lysate, on-bead tryptic digestion, LC/MS-MS
CLTC = target: T1, CLTC (human, UniProt Q00610 2-1675)
T1 construct: endogenous protein co-purified from WM115 lysate
Procedure: (§1) To identify SHARPIN-interacting proteins, WM115 cells were transfected with Flag-tagged SHARPIN or control empty plasmid. Cell lysates were prepared using 1% Triton X-100 buffer [50 mM Tris-HCl, pH7.4, 1% (v/v) Triton X-100, 150 mM NaCl, 1 mM EDTA, and protease and phosphatase inhibitor cocktails (Thermo Fisher Scientific)]. Lysates were pre-cleared with protein A/G beads (Santa Cruz Biotechnology) for 1 h at 4° C. followed by immunoprecipitation using FLAG-M2-agarose beads (Sigma-Aldrich) overnight at 4° C. Beads were then washed with lysis buffer and TBS containing lx protease inhibitor cocktail before being subjected to on-bead tryptic digestion followed by mass spectrometry. In Vitro Methylation Assay.

P4HB = target: T2, P4HB (human, UniProt P07237 18-508)
T2 construct: endogenous protein co-purified from WM115 lysate
T2 sequence (P07237 18-508 limits assumed): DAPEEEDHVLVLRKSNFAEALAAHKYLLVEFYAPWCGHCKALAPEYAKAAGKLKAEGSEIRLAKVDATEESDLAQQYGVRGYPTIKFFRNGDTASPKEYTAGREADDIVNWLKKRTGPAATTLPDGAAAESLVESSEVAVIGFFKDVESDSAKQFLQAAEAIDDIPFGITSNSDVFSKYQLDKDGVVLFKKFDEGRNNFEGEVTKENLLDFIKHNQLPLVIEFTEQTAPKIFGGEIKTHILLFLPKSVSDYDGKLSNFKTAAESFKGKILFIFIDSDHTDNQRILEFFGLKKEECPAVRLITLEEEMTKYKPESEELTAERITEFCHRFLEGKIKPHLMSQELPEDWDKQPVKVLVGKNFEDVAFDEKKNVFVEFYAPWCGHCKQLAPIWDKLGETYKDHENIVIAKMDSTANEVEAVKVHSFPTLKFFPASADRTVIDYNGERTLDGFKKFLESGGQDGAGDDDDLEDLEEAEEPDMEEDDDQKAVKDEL
Procedure: as §1

TUBB = target: T3, TUBB (human, UniProt P07437 1-444)
T3 construct: endogenous protein co-purified from WM115 lysate
Procedure: as §1

SLC25A13 = target: T4, SLC25A13 (human, UniProt Q9UJS0 2-675)
T4 construct: endogenous protein co-purified from WM115 lysate
T4 sequence (looked up): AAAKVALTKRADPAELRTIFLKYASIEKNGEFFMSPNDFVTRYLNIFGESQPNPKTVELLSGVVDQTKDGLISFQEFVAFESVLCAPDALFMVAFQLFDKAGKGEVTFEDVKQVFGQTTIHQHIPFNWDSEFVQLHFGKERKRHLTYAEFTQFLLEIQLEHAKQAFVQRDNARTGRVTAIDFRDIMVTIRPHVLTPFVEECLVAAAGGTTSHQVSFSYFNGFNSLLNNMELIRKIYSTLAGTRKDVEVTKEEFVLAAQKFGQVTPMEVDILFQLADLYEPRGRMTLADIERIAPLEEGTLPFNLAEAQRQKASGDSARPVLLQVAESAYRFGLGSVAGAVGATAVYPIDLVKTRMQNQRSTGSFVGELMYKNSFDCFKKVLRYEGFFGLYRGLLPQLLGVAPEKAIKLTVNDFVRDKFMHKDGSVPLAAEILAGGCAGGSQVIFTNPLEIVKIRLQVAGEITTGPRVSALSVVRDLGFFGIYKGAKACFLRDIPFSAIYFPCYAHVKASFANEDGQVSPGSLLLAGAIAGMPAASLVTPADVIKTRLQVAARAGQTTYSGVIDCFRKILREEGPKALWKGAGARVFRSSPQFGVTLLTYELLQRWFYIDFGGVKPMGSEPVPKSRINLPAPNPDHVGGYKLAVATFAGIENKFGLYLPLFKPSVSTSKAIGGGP
Procedure: as §1

FLNA = target: T5, FLNA (human, UniProt P21333 2-2647, limits assumed)
T5 construct: endogenous protein co-purified from WM115 lysate
Procedure: as §1

PFKFB2 = target: T6, PFKFB2 (human, UniProt O60825 2-505, limits assumed)
T6 construct: endogenous protein co-purified from WM115 lysate
T6 sequence (O60825 2-505 limits assumed): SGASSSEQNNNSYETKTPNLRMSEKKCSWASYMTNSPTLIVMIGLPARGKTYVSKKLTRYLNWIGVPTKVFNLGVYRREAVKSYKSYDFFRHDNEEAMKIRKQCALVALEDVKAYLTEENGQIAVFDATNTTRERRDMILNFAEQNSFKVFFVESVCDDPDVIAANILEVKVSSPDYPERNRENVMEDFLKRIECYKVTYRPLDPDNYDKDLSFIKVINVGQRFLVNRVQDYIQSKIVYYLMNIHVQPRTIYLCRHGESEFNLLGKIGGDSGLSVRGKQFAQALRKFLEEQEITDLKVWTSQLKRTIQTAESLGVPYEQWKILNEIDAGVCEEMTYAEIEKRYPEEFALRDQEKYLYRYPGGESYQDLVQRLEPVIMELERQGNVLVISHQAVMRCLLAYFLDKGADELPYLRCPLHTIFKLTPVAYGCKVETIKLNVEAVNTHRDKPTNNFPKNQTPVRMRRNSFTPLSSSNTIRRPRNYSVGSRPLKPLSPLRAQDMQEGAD
Procedure: as §1

[1] = target: T7, PRMT5 (endogenous, WM115 cells) (human, UniProt O14744 2-637)
T7 construct: endogenous protein co-purified from WM115 lysate; also called Protein arginine methyltransferase 5
Procedure: as §1

HSPA9 = target: T8, HSPA9 (human, UniProt P38646 47-679)
T8 construct: endogenous protein co-purified from WM115 lysate
Procedure: as §1

RBM10 = target: T9, RBM10 (human, UniProt P98175 1-930, limits assumed)
T9 construct: endogenous protein co-purified from WM115 lysate
T9 sequence (P98175 whole entry): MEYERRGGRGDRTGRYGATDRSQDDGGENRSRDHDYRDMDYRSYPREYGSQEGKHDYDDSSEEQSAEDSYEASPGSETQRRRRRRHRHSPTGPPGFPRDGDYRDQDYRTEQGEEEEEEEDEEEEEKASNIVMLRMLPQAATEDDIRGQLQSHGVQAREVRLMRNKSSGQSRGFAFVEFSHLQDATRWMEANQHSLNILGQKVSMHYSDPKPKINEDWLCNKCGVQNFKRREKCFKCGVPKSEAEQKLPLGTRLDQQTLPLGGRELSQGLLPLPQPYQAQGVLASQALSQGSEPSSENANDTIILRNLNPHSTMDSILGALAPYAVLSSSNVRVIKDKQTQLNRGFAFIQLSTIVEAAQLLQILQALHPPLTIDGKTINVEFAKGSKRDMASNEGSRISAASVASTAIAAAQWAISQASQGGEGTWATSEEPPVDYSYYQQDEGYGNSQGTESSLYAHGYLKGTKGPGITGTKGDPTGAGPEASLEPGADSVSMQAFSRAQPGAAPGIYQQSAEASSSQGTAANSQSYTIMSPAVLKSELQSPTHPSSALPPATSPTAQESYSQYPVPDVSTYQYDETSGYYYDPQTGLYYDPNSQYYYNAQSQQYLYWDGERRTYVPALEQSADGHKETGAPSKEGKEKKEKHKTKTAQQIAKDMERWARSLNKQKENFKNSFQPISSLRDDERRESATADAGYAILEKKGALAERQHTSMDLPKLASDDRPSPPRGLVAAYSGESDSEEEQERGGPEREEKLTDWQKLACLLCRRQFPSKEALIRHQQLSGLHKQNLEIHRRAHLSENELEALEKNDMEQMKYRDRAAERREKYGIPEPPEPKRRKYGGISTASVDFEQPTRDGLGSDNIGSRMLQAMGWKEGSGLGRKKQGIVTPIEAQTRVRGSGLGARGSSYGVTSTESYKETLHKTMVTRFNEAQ
Procedure: as §1

XRCC5 = target: T10, XRCC5 (human, UniProt P13010 2-732)
T10 construct: endogenous protein co-purified from WM115 lysate
Procedure: as §1

PARP1 = target: T11, PARP1 (human, UniProt P09874 2-1014)
T11 construct: endogenous protein co-purified from WM115 lysate
T11 sequence (P09874 2-1014 limits assumed): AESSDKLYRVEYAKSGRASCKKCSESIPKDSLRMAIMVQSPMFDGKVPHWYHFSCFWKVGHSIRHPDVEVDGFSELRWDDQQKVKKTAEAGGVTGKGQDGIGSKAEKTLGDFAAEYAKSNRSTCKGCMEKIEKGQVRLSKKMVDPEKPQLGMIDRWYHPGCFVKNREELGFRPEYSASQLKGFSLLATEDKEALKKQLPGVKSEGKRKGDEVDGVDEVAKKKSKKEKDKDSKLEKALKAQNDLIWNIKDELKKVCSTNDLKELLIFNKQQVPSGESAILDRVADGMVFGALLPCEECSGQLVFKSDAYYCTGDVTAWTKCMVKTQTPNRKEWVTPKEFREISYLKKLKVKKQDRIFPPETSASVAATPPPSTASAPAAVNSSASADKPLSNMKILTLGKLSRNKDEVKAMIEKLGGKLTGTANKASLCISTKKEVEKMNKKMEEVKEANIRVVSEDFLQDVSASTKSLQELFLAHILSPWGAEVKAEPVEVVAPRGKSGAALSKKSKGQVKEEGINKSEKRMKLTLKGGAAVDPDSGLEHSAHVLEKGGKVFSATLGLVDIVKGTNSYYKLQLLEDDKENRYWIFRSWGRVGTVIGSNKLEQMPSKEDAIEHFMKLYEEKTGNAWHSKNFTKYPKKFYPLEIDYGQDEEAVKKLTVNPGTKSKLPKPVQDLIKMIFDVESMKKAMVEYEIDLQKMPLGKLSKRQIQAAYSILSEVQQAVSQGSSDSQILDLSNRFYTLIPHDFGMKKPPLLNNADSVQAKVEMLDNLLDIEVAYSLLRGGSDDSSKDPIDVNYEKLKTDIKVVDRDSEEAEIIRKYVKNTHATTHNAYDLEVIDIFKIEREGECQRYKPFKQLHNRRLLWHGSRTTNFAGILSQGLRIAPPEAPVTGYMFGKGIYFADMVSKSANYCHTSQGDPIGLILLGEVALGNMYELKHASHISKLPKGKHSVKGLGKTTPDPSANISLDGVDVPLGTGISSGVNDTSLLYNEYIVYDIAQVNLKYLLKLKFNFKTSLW
Procedure: as §1

PMEL = target: T12, PMEL (human, UniProt P40967 25-661, limits assumed)
T12 construct: endogenous protein co-purified from WM115 lysate
T12 sequence (looked up): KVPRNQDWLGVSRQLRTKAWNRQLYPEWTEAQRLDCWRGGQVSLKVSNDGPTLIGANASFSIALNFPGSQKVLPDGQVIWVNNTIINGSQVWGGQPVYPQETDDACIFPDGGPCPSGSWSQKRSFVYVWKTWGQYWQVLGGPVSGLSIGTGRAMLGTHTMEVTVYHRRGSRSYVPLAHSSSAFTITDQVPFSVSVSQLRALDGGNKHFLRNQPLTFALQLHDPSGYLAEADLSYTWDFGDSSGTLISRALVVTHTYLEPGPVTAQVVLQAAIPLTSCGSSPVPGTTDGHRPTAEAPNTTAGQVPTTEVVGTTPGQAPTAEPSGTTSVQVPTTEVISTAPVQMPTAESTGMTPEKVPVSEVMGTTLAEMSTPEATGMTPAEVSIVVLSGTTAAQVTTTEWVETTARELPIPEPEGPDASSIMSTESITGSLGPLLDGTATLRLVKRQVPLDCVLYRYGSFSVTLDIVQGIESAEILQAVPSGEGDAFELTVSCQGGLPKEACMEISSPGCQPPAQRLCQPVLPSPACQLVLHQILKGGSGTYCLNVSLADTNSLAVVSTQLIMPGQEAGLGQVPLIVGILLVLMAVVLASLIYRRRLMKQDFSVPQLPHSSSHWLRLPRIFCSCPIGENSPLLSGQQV
Procedure: as §1

MYH9 = target: T13, MYH9 (human, UniProt P35579 2-1960)
T13 construct: endogenous protein co-purified from WM115 lysate
T13 sequence (P35579 2-1960 limits assumed): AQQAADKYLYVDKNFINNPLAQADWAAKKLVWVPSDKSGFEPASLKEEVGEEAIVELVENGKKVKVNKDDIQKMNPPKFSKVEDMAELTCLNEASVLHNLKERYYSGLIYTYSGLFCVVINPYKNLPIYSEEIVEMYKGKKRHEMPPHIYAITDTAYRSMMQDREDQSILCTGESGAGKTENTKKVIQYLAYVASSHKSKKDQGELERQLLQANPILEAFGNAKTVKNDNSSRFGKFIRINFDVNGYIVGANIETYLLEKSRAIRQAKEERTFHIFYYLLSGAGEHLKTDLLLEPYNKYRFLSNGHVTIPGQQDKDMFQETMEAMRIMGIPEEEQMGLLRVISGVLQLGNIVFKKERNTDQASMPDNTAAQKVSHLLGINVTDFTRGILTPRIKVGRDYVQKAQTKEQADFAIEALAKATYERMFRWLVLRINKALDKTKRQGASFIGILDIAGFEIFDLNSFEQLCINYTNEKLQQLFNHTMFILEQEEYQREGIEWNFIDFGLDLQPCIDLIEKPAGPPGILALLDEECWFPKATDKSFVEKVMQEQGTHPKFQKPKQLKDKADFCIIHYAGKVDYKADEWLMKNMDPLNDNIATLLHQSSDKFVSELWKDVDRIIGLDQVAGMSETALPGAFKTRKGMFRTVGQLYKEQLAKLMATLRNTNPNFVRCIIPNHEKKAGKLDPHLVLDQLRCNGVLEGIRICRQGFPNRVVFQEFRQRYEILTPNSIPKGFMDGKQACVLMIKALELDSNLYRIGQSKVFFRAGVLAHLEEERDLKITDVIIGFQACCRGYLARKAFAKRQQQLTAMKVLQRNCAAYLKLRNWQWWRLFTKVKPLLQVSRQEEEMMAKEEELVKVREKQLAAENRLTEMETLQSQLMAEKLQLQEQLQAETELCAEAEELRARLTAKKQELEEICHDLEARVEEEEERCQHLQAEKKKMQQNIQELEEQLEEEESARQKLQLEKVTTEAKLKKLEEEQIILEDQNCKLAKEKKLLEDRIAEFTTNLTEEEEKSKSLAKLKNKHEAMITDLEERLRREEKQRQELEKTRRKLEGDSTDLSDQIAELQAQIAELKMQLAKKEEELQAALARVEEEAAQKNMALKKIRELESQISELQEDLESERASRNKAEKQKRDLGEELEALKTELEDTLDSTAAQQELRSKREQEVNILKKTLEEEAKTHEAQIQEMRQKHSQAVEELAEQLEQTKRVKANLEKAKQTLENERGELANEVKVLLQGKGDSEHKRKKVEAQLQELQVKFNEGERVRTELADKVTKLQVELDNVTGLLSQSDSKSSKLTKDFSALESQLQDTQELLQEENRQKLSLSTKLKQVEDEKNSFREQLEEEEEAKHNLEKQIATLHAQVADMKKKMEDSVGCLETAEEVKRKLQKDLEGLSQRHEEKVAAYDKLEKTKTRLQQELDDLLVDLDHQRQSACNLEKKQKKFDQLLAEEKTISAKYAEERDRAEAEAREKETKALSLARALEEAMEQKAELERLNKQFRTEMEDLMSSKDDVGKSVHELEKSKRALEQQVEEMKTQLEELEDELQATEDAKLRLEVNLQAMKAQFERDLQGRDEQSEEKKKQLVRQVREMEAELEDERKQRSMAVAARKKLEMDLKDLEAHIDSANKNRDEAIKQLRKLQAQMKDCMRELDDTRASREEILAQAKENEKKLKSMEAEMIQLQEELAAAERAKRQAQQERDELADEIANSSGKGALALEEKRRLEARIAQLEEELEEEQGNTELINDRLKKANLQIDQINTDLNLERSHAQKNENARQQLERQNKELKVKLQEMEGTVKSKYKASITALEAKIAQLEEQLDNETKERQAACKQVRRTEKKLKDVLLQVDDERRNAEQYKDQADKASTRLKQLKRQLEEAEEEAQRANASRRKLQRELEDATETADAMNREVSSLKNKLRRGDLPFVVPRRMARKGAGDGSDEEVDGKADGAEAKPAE
Procedure: as §1

FASN = target: T14, FASN (human, UniProt P49327 1-2511)
T14 construct: endogenous protein co-purified from WM115 lysate
Procedure: as §1

binding result (CLTC): binds
binding result (P4HB): binds
binding result (TUBB): binds
binding result (SLC25A13): binds
binding result (FLNA): binds
binding result (PFKFB2): binds
binding result [1]: binds
binding result (HSPA9): binds
binding result (RBM10): binds
binding result (XRCC5): binds
binding result (PARP1): binds
binding result (PMEL): binds
binding result (MYH9): binds
binding result (FASN): binds
B1: Flag-tagged SHARPIN (other, human, UniProt Q9H0F6 1-387, looked up)
chain: MAPPAGGAAAAASDLGSAAVLLAVHAAVRPLGAGPDAEAQLRRLQLSADPERPGRFRLELLGAGPGAVNLEWPLESVSYTIRGPTQHELQPPPGGPGTLSLHFLNPQEAQRWAVLVRGATVEGQNGSKSNSPPALGPEACPVSLPSPPEASTLKGPPPEADLPRSPGNLTEREELAGSLARAIAGGDEKGAAQVAAVLAQHRVALSVQLQEACFPPGPIRLQVTLEDAASAASAASSAHVALQVHPHCTVAALQEQVFSELGFPPAVQRWVIGRCLCVPERSLASYGVRQDGDPAFLYLLSAPREAPATGPSPQHPQKMDGELGRLFPPSLGLPPGPQPAASSLPSPLQPSWSCPSCTFINAPDRPGCEMCSTQRPCTWDPLAAAST
notes: also called Flag-SHARPIN; not shown: FLAG tag
